Target: HLA-A*01:01 (Homo sapiens, UniProt P04439, A114D/A174V/A182V/D101N/D185E/E176A/E190D/L180R/Q94H/R68K/S129P/T187R/V100A/V91M/W191G)
Test: MHC binding assay: UV-ligand exchange, ELISA of stabilized MHC complexes (peptide exchange yield)
Conditions: binding to HLA-A*01:01, UV-ligand exchange
In short: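 Peptide–MHC complexes were formed by UV-induced exchange of a photocleavable ligand for the test peptide. Exchange yield was measured by streptavidin-capture ELISA of 100-fold diluted complexes, detected with HRP anti-β2m at A450. Refolded HLA-A*02:01/MLA-001 monomers at 15-500 ng/ml served as standards.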

Row | Substance | Peptide exchange
1 | 325 (LQKPVLPLY; listed as Homo sapiens) [compound 325] | ++ (>20% = ++)
2 | 330 (EGELSEGEHWY; listed as Homo sapiens) [compound 330] | +++ (>50 = +++)
3 | 333 (LSDPQAELQFY; listed as Homo sapiens) [compound 333] | ++++ (>75% = ++++)
4 | 334 (PSSMPECLSY; listed as Homo sapiens) [compound 334] | ++++ (>75% = ++++)
5 | 335 (PSSMPECLSYY; listed as Homo sapiens) [compound 335] | +++ (>50 = +++)
6 | 337 (FTESNQYNIY; listed as Homo sapiens) [compound 337] | ++++ (>75% = ++++)
7 | 341 (PANYLGKMTY; listed as Homo sapiens) [compound 341] | +++ (>50 = +++)
8 | 344 (AVNALQSVY; listed as Homo sapiens) [compound 344] | ++ (>20% = ++)
9 | 346 (VAGLEAGVLY; listed as Homo sapiens) [compound 346] | ++ (>20% = ++)
10 | 348 (DSTDGCLLSF; listed as Homo sapiens) [compound 348] | ++ (>20% = ++)
11 | 349 (HLLSVSLYY; listed as Homo sapiens) [compound 349] | + (>10% =+)
12 | 355 (MADRGEARL; listed as Homo sapiens) [compound 355] | ++ (>20% = ++)
13 | 357 (MSPDIALLYL; listed as Homo sapiens) [compound 357] | +++ (>50 = +++)
14 | 358 (YMSPDIALLY; listed as Homo sapiens) [compound 358] | ++++ (>75% = ++++)
15 | 361 (FTAEEGQLY; listed as Homo sapiens) [compound 361] | +++ (>50 = +++)
16 | 362 (SGALDEAAAY; listed as Homo sapiens) [compound 362] | ++ (>20% = ++)
17 | 363 (LTDRDVSFY; listed as Homo sapiens) [compound 363] | ++++ (>75% = ++++)
18 | 364 (DTGYLQLYY; listed as Homo sapiens) [compound 364] | ++++ (>75% = ++++)
19 | 366 (ITVDVRDEF; listed as Homo sapiens) [compound 366] | + (>10% =+)
20 | 370 (RLSTIRHLY; listed as Homo sapiens) [compound 370] | +++ (>50 = +++)
21 | 371 (WSDSTSQTIY; listed as Homo sapiens) [compound 371] | ++++ (>75% = ++++)
22 | 373 (FHADSDDESF; listed as Homo sapiens) [compound 373] | + (>10% =+)
23 | 375 (ASSLDSLHY; listed as Homo sapiens) [compound 375] | ++++ (>75% = ++++)
24 | 377 (YADPSANRDLL; listed as Homo sapiens) [compound 377] | ++ (>20% = ++)
25 | 378 (TAKAPSTEY; listed as Homo sapiens) [compound 378] | ++ (>20% = ++)
26 | 381 (ETSFSTSHY; listed as Homo sapiens) [compound 381] | ++++ (>75% = ++++)

Further lines, results first:

Row | Peptide exchange | Substance
27 | ++ (>20% = ++) | 323 (KTLQKPVLPLY; listed as Homo sapiens) [compound 323]
28 | ++ (>20% = ++) | 324 (RTGIFPYRF; listed as Homo sapiens) [compound 324]
29 | ++ (>20% = ++) | 326 (STSRLTLFS; listed as Homo sapiens) [compound 326]
30 | +++ (>50 = +++) | 327 (IMLSVDQHLY; listed as Homo sapiens) [compound 327]
31 | ++ (>20% = ++) | 328 (LLDEDNNIKL; listed as Homo sapiens) [compound 328]
32 | ++++ (>75% = ++++) | 329 (NTDSMTLNNTAY; listed as Homo sapiens) [compound 329]
33 | ++++ (>75% = ++++) | 331 (YLYQAPGSLALY; listed as Homo sapiens) [compound 331]
34 | +++ (>50 = +++) | 336 (ATNIQLNIDTY; listed as Homo sapiens) [compound 336]
35 | ++ (>20% = ++) | 338 (YSPDSFNVSW; listed as Homo sapiens) [compound 338]
36 | ++ (>20% = ++) | 339 (ESMDIFPLGW; listed as Homo sapiens) [compound 339]
37 | +++ (>50 = +++) | 340 (SVDSNLVAY; listed as Homo sapiens) [compound 340]
38 | ++++ (>75% = ++++) | 342 (QTYMDGLLHY; listed as Homo sapiens) [compound 342]
39 | + (>10% =+) | 343 (YFGNYFTYY; listed as Homo sapiens) [compound 343]
40 | ++++ (>75% = ++++) | 345 (NTMDAVPRIDHY; listed as Homo sapiens) [compound 345]
41 | ++ (>20% = ++) | 347 (SADHPGLTF; listed as Homo sapiens) [compound 347]
42 | +++ (>50 = +++) | 350 (LTDPQVSYV; listed as Homo sapiens) [compound 350]
43 | ++++ (>75% = ++++) | 351 (VLDPMLDFY; listed as Homo sapiens) [compound 351]

Row | Peptide exchange | Substance
44 | ++ (>20% = ++) | 352 (YPVVVAESMY; listed as Homo sapiens) [compound 352]
45 | ++ (>20% = ++) | 353 (RLNGSVASY; listed as Homo sapiens) [compound 353]
46 | ++ (>20% = ++) | 354 (EIIRYIFAY; listed as Homo sapiens) [compound 354]
47 | ++++ (>75% = ++++) | 356 (NSENHILKY; listed as Homo sapiens) [compound 356]
48 | +++ (>50 = +++) | 359 (NKEINYFMY; listed as Homo sapiens) [compound 359]
49 | + (>10% =+) | 360 (RFDDINQEF; listed as Homo sapiens) [compound 360]
50 | ++ (>20% = ++) | 365 (FVDTKVPEH; listed as Homo sapiens) [compound 365]
51 | ++++ (>75% = ++++) | 367 (LTDTGYLQLY; listed as Homo sapiens) [compound 367]
52 | +++ (>50 = +++) | 368 (ESAATGQLDY; listed as Homo sapiens) [compound 368]
53 | +++ (>50 = +++) | 369 (AVMEAAFVY; listed as Homo sapiens) [compound 369]
54 | ++ (>20% = ++) | 372 (SRSDFEWVY; listed as Homo sapiens) [compound 372]
55 | +++ (>50 = +++) | 376 (EDDEDEDLY; listed as Homo sapiens) [compound 376]
56 | ++ (>20% = ++) | 379 (SLIIDDTEY; listed as Homo sapiens) [compound 379]
57 | +++ (>50 = +++) | 380 (VACGNNPVY; listed as Homo sapiens) [compound 380]
58 | ++ (>20% = ++) | 382 (YEPATMEQY; listed as Homo sapiens) [compound 382]
59 | ++ (>20% = ++) | 383 (PPDHAVGRTKY; listed as Homo sapiens) [compound 383]
